B1: Max-interacting protein 1, residues 70 to 120; numbered along this chain, P50539 (parent)
chain: STHNELEKNRRAHLRLCLERLKVLIPLGPDCTRHTTLGLLNKAKAHIKKLE

Variants of: B1
Test: abundance fitness (aPCA) (normalised: wild type 0, dead -1); higher = more abundant; growth selection in yeast, the domain comes from the species named
Conditions: Homo sapiens

Abundance fitness of substitutions, site by site:
P29: S 0.359; T 0.177; V 0.401; W 0.519; Y 0.256
D30: A 0.095; C -0.07; E -0.134; F 0.036; G 0.178; H 0.031; I 0.151; K 0.213; L 0.183; M 0.118; N 0.229; P 0.128; Q 0.147; R 0.178; S 0.279; T 0.128; V 0.223; W 0.034; Y -0.007
C31: A 0.106; D -0.136; E -0.206; F 0.007; G 0.027; H 0.308; I 0.167; K 0.334; L 0; M -0.087; N 0.185; P 0.053; Q 0.072; R 0.203; S 0.168; T -0.034; V 0.145; W 0.19; Y -0.13
T32: A 0.163; C 0.268; D -0.387; E -0.354; G 0.012; H -0.168; I 0.139; K -0.239; L 0.374; M 0.546; N -0.389; P -0.303; Q -0.112; R -0.137; S -0.109; V 0.341; W 0.033; Y -0.174
R33: A -0.338; C -0.365; D -0.644; E -0.667; F -0.129; G -0.257; H -0.247; I -0.691; K -0.117; L -0.438; M -0.394; N -0.372; P -0.225; Q -0.116; S -0.44; T -0.576; V -0.293; W -0.075; Y -0.107
H34: C -0.063; D -0.457; G 0.114; I -0.225; K 0.39; L 0.081; N 0.052; P -0.318; Q -0.028; R 0.264; S 0.047; T -0.103; V 0.019; W 0.017; Y -0.406
T35: A 0.213; C 0.019; D -0.377; E -0.508; F 0.198; G -0.031; H -0.023; K 0.218; L -0.017; P -0.103; Q -0.176; R 0.225; S 0.025; V 0.057; W 0.189; Y 0.279
T36: A 0.138; C 0.085; D -0.705; E -0.487; F 0.155; G 0.134; H -0.176; I -0.028; K -0.091; L -0.106; N -0.183; P -0.107; Q -0.199; R -0.19; S -0.132; V 0.308
L37: A -0.026; C -0.244; D -0.375; E -0.344; F 0.105; G -0.107; H -0.399; K 0.073; M -0.124; N -0.292; P -0.624; Q -0.154; R 0.253; S 0.06; T 0.042; V -0.023; W 0.125; Y -0.172
G38: A -0.055; C -0.229; E -0.185; F -0.584; H -0.168; I -0.486; K 0.081; L -0.326; M 0.118; R -0.009; S -0.087; T -0.069; V -0.242; W -0.265; Y -0.546
L39: A -0.704; C -0.588; D -1.11; E -0.597; H -1.15; I -0.07; K -0.881; M -0.194; N -1; P -0.597; Q -0.894; R -0.879; S -0.707; T -0.535; V -0.257; W 0.127; Y -0.555
L40: A -0.553; C -0.926; D -1.13; E -0.857; F 0.033; H -0.86; K -0.793; M -0.098; N -0.584; P -0.89; Q -0.933; R -0.698; S -0.91; T -0.68; V -0.099; W 0.323; Y -0.617
N41: A -0.218; C -0.237; D -0.322; E -0.139; F -0.7; I -0.631; K 0.109; L -0.711; M -0.559; P -0.44; R -0.044; S -0.09; T -0.555; V -0.707; W -0.83; Y -0.745
K42: A -0.319; C -0.185; D -0.992; E -0.716; F -0.256; G -0.421; H -0.813; I -0.284; L -0.641; M -0.452; N -0.598; P -0.808; Q -0.44; R -0.069; S -0.338; T -0.196; W -0.23; Y -0.684
A43: C -0.133; D -0.634; E -0.58; F -0.182; G -0.583; H -0.828; I -0.2; K -0.939; N -0.553; P -0.53; Q -0.74; S -0.652; T -0.339; V -0.046; W -0.303; Y -0.918
A45: C -0.25; D -0.617; E -0.136; F -0.346; G -0.447; H -0.168; I 0.043; K -0.057; L -0.097; M -0.276; N -0.023; P -0.631; Q 0.085; R -0.167; S -0.262; T -0.027; V -0.045; W -0.483
H46: A 0.157; D -0.973; E -0.527; F -0.456; G 0.108; I -0.26; K 0.186; N -0.394; P -0.6; Q 0.305; R -0.055; S 0.237; T 0.154; V 0.116; W 0.216
I47: A -0.582; C -0.524; D -0.761; E -0.776; F 0.216; G -0.539; K -0.858; L 0.027; M -0.25; N -0.702; P -1.06; Q -0.931; R -0.707; S -0.653; T -0.61; V -0.312; Y -0.137
K48: C -0.311; D -0.65; E -0.762; F -0.093; G -0.479; H -0.74; I -0.351; L -0.802; M -0.65; N -0.675; P -0.643; Q -0.457; R -0.288; S -0.648; T -0.719; V -0.846; W -0.31; Y 0.026
K49: C -0.62; D -1.07; F -0.045; G -0.458; H -1.02; I -0.81; L -0.386; M -0.692; N -0.594; P -0.638; Q -0.679; S -0.278; T -0.701; V -0.618; W -0.041; Y -0.746
L50: A -0.572; D -0.423; E -0.636; F 0.259; G -0.317; K -0.342
